Residue numbers refer to the chain shown, from its start.
Columns and labels:
[1] = molecular target: T1, human TREM2 (human, UniProt Q9NZC2 19-174, limits assumed); assay: 1st screen, 110 nM Ab
T1 construct: also called triggering receptor expressed on myeloid cells 2
T1 sequence: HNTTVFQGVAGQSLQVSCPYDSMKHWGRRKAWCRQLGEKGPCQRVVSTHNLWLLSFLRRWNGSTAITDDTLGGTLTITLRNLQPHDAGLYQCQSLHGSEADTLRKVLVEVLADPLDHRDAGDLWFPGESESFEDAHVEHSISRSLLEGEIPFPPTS

[2] = molecular target: T1, human TREM2; assay: 2nd screen, 100 nM

B1: V6 (antibody, V domains shown)
VH: EVQLVQSGAEVKKPGESLKISCKGSGYSFTSMWIAWVRQMPGKGLEWMGIIYPGDSDTRYSPSFQGQVTISADKSISTAYLQWSSLKASDTAMYFCARQRTFYYDSSDYFDYWGQGTLVTVSS
VL: DIQMTQSPSSVSASVGDRVTITCRASQGISSWLAWYQQKPGKAPKLLIYAASSLQNGVPSRFSGSGSGTDFTLTISSLQPEDFATYFCQQADSFPRTFGQGTKLEIK
notes: also called 6E7 variant V6
Q: Which “Binding Signal” value [1] does the source give for B1 here?
A: 0.2 fold over 6E7 parental antibody

Q: What about the “Binding Signal” value [2] of the same binder?
A: 0.56 fold over 6E7 parental antibody

B2: V44 (antibody, V domains shown)
VH: B1 VH with M32Y, G54S
VL: B1 VL
notes: also called 6E7 variant V44; LV-16/HV-204
Q: With B2 as the binder, how does the “Binding Signal” value [1] read?
A: 0.65 fold over 6E7 parental antibody

Q: What about the “Binding Signal” value [2] of the same binder?
A: 0.52 fold over 6E7 parental antibody

B3: V54 (antibody, V domains shown)
VH: B1 VH with M32Q
VL: B1 VL
notes: also called 6E7 variant V54
Q: With B3 as the binder, how does the “Binding Signal” value [1] read?
A: 0.55 fold over 6E7 parental antibody

Q: And the “Binding Signal” value [2]?
A: 0.54 fold over 6E7 parental antibody

B4: V19 (antibody, V domains shown)
VH: B1 VH with M32S
VL: B1 VL
notes: also called 6E7 variant V19
Q: What does the source list for B4?
A: Binding Signal [1]: 0.59 fold over 6E7 parental antibody; Binding Signal [2]: 0.48 fold over 6E7 parental antibody

B5: V45 (antibody, V domains shown)
VH: B1 VH with M32Y
VL: B1 VL with W32F
notes: also called 6E7 variant V45
Q: With B5 as the binder, how does the “Binding Signal” value [1] read?
A: 0.43 fold over 6E7 parental antibody

Q: And the “Binding Signal” value [2]?
A: 0.53 fold over 6E7 parental antibody

B6: V78 (antibody, V domains shown)
VH: B1 VH with S28R, M32Y
VL: B1 VL
notes: also called 6E7 variant V78
Q: Which results are given for B6?
A: Binding Signal [1]: 0.86 fold over 6E7 parental antibody; Binding Signal [2]: 1.11 fold over 6E7 parental antibody

B7: V8 (antibody, V domains shown)
VH: B1 VH with M32Y, R59K
VL: B1 VL
notes: also called 6E7 variant V8
Q: For B7, which “Binding Signal” value [1] is on record?
A: 0.28 fold over 6E7 parental antibody

Q: What about the “Binding Signal” value [2] of the same binder?
A: 0.77 fold over 6E7 parental antibody

B8: V71 (antibody, V domains shown)
VH: B1 VH with M32Y
VL: B1 VL with F94E
notes: also called 6E7 variant V71
Q: How did the “Binding Signal” value [1] turn out when B8 was run?
A: 0.37 fold over 6E7 parental antibody

Q: What about the “Binding Signal” value [2] of the same binder?
A: 0.48 fold over 6E7 parental antibody

B9: V9 (antibody, V domains shown)
VH: B1 VH with M32Y, T101G
VL: B1 VL
notes: also called 6E7 variant V9; LV-16/HV-201
Q: For B9, which “Binding Signal” value [1] is on record?
A: 0.67 fold over 6E7 parental antibody

Q: And the “Binding Signal” value [2]?
A: 0.54 fold over 6E7 parental antibody

B10: V66 (antibody, V domains shown)
VH: B1 VH with Y27T, M32Y
VL: B1 VL
notes: also called 6E7 variant V66
Q: Which “Binding Signal” value [1] does the source give for B10 here?
A: 0.25 fold over 6E7 parental antibody

Q: And the “Binding Signal” value [2]?
A: 0.74 fold over 6E7 parental antibody

B11: V79 (antibody, V domains shown)
VH: B1 VH with M32Y, R59N
VL: B1 VL
notes: also called 6E7 variant V79
Q: Which “Binding Signal” value [1] does the source give for B11 here?
A: 0.7 fold over 6E7 parental antibody

Q: What about the “Binding Signal” value [2] of the same binder?
A: 0.52 fold over 6E7 parental antibody

B12: V33 (antibody, V domains shown)
VH: B1 VH with M32Y, Y104G
VL: B1 VL
notes: also called 6E7 variant V33; LV-16/HV-203
Q: For B12, which “Binding Signal” value [1] is on record?
A: 0.23 fold over 6E7 parental antibody

Q: What about the “Binding Signal” value [2] of the same binder?
A: 0.34 fold over 6E7 parental antibody

B13: V67 (antibody, V domains shown)
VH: B1 VH with M32Y, I50M
VL: B1 VL
notes: also called 6E7 variant V67
Q: Which “Binding Signal” value [1] does the source give for B13 here?
A: 0.8 fold over 6E7 parental antibody

Q: What about the “Binding Signal” value [2] of the same binder?
A: 0.84 fold over 6E7 parental antibody

B14: V56 (antibody, V domains shown)
VH: B1 VH with M32Y, S61Q
VL: B1 VL
notes: also called 6E7 variant V56
Q: With B14 as the binder, how does the “Binding Signal” value [1] read?
A: 0.23 fold over 6E7 parental antibody

Q: And the “Binding Signal” value [2]?
A: 0.59 fold over 6E7 parental antibody

B15: V21 (antibody, V domains shown)
VH: B1 VH with M32Y, Y109F
VL: B1 VL
notes: also called 6E7 variant V21
Q: With B15 as the binder, how does the “Binding Signal” value [1] read?
A: 0.76 fold over 6E7 parental antibody

Q: What about the “Binding Signal” value [2] of the same binder?
A: 0.68 fold over 6E7 parental antibody

B16: V55 (antibody, V domains shown)
VH: B1 VH with M32Y, R59I, F64H
VL: B1 VL
notes: also called 6E7 variant V55
Q: What does the source list for B16?
A: Binding Signal [1]: 0.24 fold over 6E7 parental antibody; Binding Signal [2]: 0.66 fold over 6E7 parental antibody

B17: V11 (antibody, V domains shown)
VH: B1 VH with M32Y
VL: B1 VL with D92A
notes: also called 6E7 variant V11
Q: With B17 as the binder, how does the “Binding Signal” value [1] read?
A: 0.79 fold over 6E7 parental antibody

Q: What about the “Binding Signal” value [2] of the same binder?
A: 0.42 fold over 6E7 parental antibody

B18: V46 (antibody, V domains shown)
VH: B1 VH with M32Y
VL: B1 VL with S53T
notes: also called 6E7 variant V46
Q: What does the source list for B18?
A: Binding Signal [1]: 0.83 fold over 6E7 parental antibody; Binding Signal [2]: 0.96 fold over 6E7 parental antibody

B19: V23 (antibody, V domains shown)
VH: B1 VH with M32Y
VL: B1 VL with R96L
notes: also called 6E7 variant V23; LV-202/HV-15
Q: B19 was tested. Which “Binding Signal” value [1] did it give?
A: 0.4 fold over 6E7 parental antibody

Q: What about the “Binding Signal” value [2] of the same binder?
A: 0.4 fold over 6E7 parental antibody

B20: V69 (antibody, V domains shown)
VH: B1 VH with M32Y
VL: B1 VL with W32Y
notes: also called 6E7 variant V69
Q: B20 was tested. Which “Binding Signal” value [1] did it give?
A: 0.41 fold over 6E7 parental antibody

Q: And the “Binding Signal” value [2]?
A: 0.4 fold over 6E7 parental antibody

B21: V81 (antibody, V domains shown)
VH: B1 VH with M32Y
VL: B1 VL with W32L
notes: also called 6E7 variant V81
Q: For B21, which “Binding Signal” value [1] is on record?
A: 0.17 fold over 6E7 parental antibody

Q: What about the “Binding Signal” value [2] of the same binder?
A: 0.23 fold over 6E7 parental antibody

B22: V43 (antibody, V domains shown)
VH: B1 VH with M32Y, D57G
VL: B1 VL
notes: also called 6E7 variant V43
Q: How did the “Binding Signal” value [1] turn out when B22 was run?
A: 0.2 fold over 6E7 parental antibody

Q: And the “Binding Signal” value [2]?
A: 0.33 fold over 6E7 parental antibody

B23: V22 (antibody, V domains shown)
VH: B1 VH with M32Y
VL: B1 VL with A50R
notes: also called 6E7 variant V22
Q: B23 was tested. Which “Binding Signal” value [1] did it give?
A: 0.3 fold over 6E7 parental antibody

Q: And the “Binding Signal” value [2]?
A: 0.71 fold over 6E7 parental antibody

B24: V20 (antibody, V domains shown)
VH: B1 VH with M32Y, I50R
VL: B1 VL
notes: also called 6E7 variant V20
Q: With B24 as the binder, how does the “Binding Signal” value [1] read?
A: 0.18 fold over 6E7 parental antibody

Q: What about the “Binding Signal” value [2] of the same binder?
A: 0.52 fold over 6E7 parental antibody

B25: V59 (antibody, V domains shown)
VH: B1 VH with M32Y
VL: B1 VL with Q89M
notes: also called 6E7 variant V59
Q: What does the source list for B25?
A: Binding Signal [1]: 0.19 fold over 6E7 parental antibody; Binding Signal [2]: 0.6 fold over 6E7 parental antibody

B26: V10 (antibody, V domains shown)
VH: B1 VH with M32Y
VL: B1 VL with A50S
notes: also called 6E7 variant V10; LV-201/HV-15
Q: Which “Binding Signal” value [1] does the source give for B26 here?
A: 0.76 fold over 6E7 parental antibody

Q: What about the “Binding Signal” value [2] of the same binder?
A: 0.7 fold over 6E7 parental antibody

B27: V7 (antibody, V domains shown)
VH: B1 VH with M32E
VL: B1 VL
notes: also called 6E7 variant V7
Q: B27 was tested. Which “Binding Signal” value [1] did it give?
A: 0.11 fold over 6E7 parental antibody

Q: What about the “Binding Signal” value [2] of the same binder?
A: 0.32 fold over 6E7 parental antibody

B28: V18 (antibody, V domains shown)
VH: B1 VH with M32Y, W33H
VL: B1 VL
notes: also called 6E7 variant V18
Q: Which results are given for B28?
A: Binding Signal [1]: 0.17 fold over 6E7 parental antibody; Binding Signal [2]: 0.42 fold over 6E7 parental antibody

B29: V47 (antibody, V domains shown)
VH: B1 VH with M32Y
VL: B1 VL with R96M
notes: also called 6E7 variant V47
Q: What does the source list for B29?
A: Binding Signal [1]: 0.42 fold over 6E7 parental antibody; Binding Signal [2]: 0.47 fold over 6E7 parental antibody

B30: V80 (antibody, V domains shown)
VH: B1 VH with M32Y, T101N
VL: B1 VL
notes: also called 6E7 variant V80
Q: Which “Binding Signal” value [1] does the source give for B30 here?
A: 0.59 fold over 6E7 parental antibody

Q: And the “Binding Signal” value [2]?
A: 0.5 fold over 6E7 parental antibody

B31: V32 (antibody, V domains shown)
VH: B1 VH with M32Y, P62N
VL: B1 VL
notes: also called 6E7 variant V32
Q: What does the source list for B31?
A: Binding Signal [1]: 0.82 fold over 6E7 parental antibody; Binding Signal [2]: 0.89 fold over 6E7 parental antibody

B32: V58 (antibody, V domains shown)
VH: B1 VH with M32Y
VL: B1 VL with A50K
notes: also called 6E7 variant V58
Q: B32 was tested. Which “Binding Signal” value [1] did it give?
A: 0.28 fold over 6E7 parental antibody

Q: And the “Binding Signal” value [2]?
A: 0.68 fold over 6E7 parental antibody

B33: V31 (antibody, V domains shown)
VH: B1 VH with M32Y, D57E
VL: B1 VL
notes: also called 6E7 variant V31
Q: What does the source list for B33?
A: Binding Signal [1]: 0.61 fold over 6E7 parental antibody; Binding Signal [2]: 0.73 fold over 6E7 parental antibody

B34: V68 (antibody, V domains shown)
VH: B1 VH with M32Y, Y103R
VL: B1 VL
notes: also called 6E7 variant V68
Q: With B34 as the binder, how does the “Binding Signal” value [1] read?
A: 0.44 fold over 6E7 parental antibody

Q: And the “Binding Signal” value [2]?
A: 0.43 fold over 6E7 parental antibody

B35: V30 (antibody, V domains shown)
VH: B1 VH with Y27S, M32Y
VL: B1 VL
notes: also called 6E7 variant V30; LV-16/HV-202
Q: What does the source list for B35?
A: Binding Signal [1]: 0.79 fold over 6E7 parental antibody; Binding Signal [2]: 0.72 fold over 6E7 parental antibody

B36: V70 (antibody, V domains shown)
VH: B1 VH with M32Y
VL: B1 VL with S52G
notes: also called 6E7 variant V70; LV-204/HV-15
Q: For B36, which “Binding Signal” value [1] is on record?
A: 0.79 fold over 6E7 parental antibody

Q: What about the “Binding Signal” value [2] of the same binder?
A: 0.84 fold over 6E7 parental antibody

B37: V34 (antibody, V domains shown)
VH: B1 VH with M32Y
VL: B1 VL with N56D
notes: also called 6E7 variant V34
Q: How did the “Binding Signal” value [1] turn out when B37 was run?
A: 0.34 fold over 6E7 parental antibody

Q: And the “Binding Signal” value [2]?
A: 1.02 fold over 6E7 parental antibody

B38: V42 (antibody, V domains shown)
VH: B1 VH with M32A
VL: B1 VL
notes: also called 6E7 variant V42
Q: How did the “Binding Signal” value [1] turn out when B38 was run?
A: 0.45 fold over 6E7 parental antibody

Q: And the “Binding Signal” value [2]?
A: 0.41 fold over 6E7 parental antibody

B39: V57 (antibody, V domains shown)
VH: B1 VH with M32Y
VL: B1 VL with R24A
notes: also called 6E7 variant V57; LV-203/HV-15
Q: What does the source list for B39?
A: Binding Signal [1]: 0.84 fold over 6E7 parental antibody; Binding Signal [2]: 0.85 fold over 6E7 parental antibody

B40: V35 (antibody, V domains shown)
VH: B1 VH with M32Y
VL: B1 VL with D92Y
notes: also called 6E7 variant V35
Q: With B40 as the binder, how does the “Binding Signal” value [1] read?
A: 0.21 fold over 6E7 parental antibody

Q: What about the “Binding Signal” value [2] of the same binder?
A: 0.29 fold over 6E7 parental antibody

From patent US20250326839A1 (VIGIL NEUROSCIENCE, published 2025)
